B1: SINAT2-His (natural protein, Arabidopsis thaliana, UniProt Q9M2P4 1-308, looked up)
chain: MAPGGSALKEVMESNSTGMDYEVKTAKVEVNNNKPTKPGSAGIGKYGIHSNNGVYELLECPVCTNLMYPPIHQCPNGHTLCSNCKLRVQNTCPTCRYELGNIRCLALEKVAESLEVPCRYQNLGCHDIFPYYSKLKHEQHCRFRPYTCPYAGSECSVTGDIPTLVVHLKDDHKVDMHDGCTFNHRYVKSNPHEVENATWMLTVFNCFGRQFCLHFEAFQLGMAPVYMAFLRFMGDENEAKKFSYSLEVGAHGRKLTWQGIPRSIRDSHRKVRDSQDGLIIPRNLALYFSGGDRQELKLRVTGRIWKEE
notes: SINAT2 (SINA of Arabidopsis thaliana 2), At3g58040; Printed both as SINAT2-His (pull-down) and His-SINAT2 (ubiquitination assay); also called His-SINAT2

Tests used:
Assay in all cases: pull-down; in vitro pull-down: about 5 ug GST-tagged protein on glutathione resin, about 2 ug His-tagged protein added, 1 h at 4°C; washed with 1x PBS, 0.1% Triton X-100; anti-His blot
Details in all cases: both partners purified
phyB-C-GST = biological target: T1, phyB-C-GST (Arabidopsis thaliana, UniProt P14713 646-1172)
T1 construct: phytochrome B (phyB), Arabidopsis thaliana, C-terminus, amino acids 646-1,172; Cloned into pGEX-4T-1; also called C-terminus of phytochrome B; source: E. coli BL21 (DE3) pLysS, purified (glutathione resin)
T1 sequence (looked up): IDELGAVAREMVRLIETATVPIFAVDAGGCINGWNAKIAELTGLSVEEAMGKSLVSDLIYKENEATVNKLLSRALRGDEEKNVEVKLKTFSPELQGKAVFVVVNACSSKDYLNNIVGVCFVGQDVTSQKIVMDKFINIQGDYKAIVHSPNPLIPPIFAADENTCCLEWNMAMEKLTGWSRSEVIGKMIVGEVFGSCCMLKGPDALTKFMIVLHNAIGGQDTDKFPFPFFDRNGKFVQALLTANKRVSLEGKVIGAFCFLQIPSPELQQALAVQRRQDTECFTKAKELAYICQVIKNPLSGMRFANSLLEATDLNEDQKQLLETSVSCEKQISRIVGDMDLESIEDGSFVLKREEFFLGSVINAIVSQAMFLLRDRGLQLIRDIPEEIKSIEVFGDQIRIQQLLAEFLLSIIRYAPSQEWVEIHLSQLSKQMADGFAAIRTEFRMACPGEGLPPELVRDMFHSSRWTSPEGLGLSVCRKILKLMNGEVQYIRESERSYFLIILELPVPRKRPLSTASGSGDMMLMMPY

phyB-N-GST = biological target: T2, phyB-N-GST (Arabidopsis thaliana, UniProt P14713 1-645)
T2 construct: phytochrome B (phyB), Arabidopsis thaliana, N-terminus, amino acids 1-645; also called N-terminus of phytochrome B; source: E. coli, purified (glutathione resin)
T2 sequence (looked up): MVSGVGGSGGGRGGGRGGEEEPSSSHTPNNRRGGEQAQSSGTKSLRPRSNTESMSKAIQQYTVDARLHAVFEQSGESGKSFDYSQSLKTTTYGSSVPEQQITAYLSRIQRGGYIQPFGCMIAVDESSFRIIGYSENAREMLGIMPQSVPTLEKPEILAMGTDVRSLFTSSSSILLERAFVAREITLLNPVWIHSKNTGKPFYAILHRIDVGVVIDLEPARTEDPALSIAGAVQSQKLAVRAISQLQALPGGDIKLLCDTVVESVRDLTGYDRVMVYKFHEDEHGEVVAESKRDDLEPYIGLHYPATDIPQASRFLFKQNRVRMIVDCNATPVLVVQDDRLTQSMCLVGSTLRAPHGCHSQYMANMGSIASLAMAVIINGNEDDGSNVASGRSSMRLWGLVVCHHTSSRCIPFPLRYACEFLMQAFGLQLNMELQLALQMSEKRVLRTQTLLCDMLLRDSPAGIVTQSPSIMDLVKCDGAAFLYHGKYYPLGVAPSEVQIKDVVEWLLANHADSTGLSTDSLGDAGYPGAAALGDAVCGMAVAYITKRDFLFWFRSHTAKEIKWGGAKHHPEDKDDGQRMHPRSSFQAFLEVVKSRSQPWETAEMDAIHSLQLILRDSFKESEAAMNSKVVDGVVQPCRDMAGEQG

CRY1-N-GST = biological target: T3, CRY1-N-GST (Arabidopsis thaliana, UniProt Q43125 1-490)
T3 construct: cryptochrome 1 (CRY1), Arabidopsis thaliana, N-terminus, amino acids 1-490; Cloned into pGEX-4T-1; also called N-terminus of cryptochrome 1; source: E. coli BL21 (DE3) pLysS, purified (glutathione resin)
T3 sequence (Q43125 1-490): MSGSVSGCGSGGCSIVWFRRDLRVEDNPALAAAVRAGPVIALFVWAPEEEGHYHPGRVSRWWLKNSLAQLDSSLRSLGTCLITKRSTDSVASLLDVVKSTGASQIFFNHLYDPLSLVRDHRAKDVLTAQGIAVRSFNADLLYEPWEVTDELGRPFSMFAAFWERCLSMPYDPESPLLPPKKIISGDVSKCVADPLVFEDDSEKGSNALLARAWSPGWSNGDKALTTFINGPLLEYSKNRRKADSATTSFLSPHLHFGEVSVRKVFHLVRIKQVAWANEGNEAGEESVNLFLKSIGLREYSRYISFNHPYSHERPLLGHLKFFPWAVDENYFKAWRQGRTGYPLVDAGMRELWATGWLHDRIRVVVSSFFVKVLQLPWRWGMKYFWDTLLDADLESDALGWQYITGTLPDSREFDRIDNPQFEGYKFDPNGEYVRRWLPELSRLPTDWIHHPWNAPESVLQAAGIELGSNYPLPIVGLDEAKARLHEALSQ

SINAT2-His = biological target: B1

Binder: B1
- binding result (phyB-C-GST): binds
- binding result (phyB-N-GST): binds
- binding result (CRY1-N-GST): binds

B2: CRY1-C-GST (domain or fragment, Arabidopsis thaliana, UniProt Q43125 491-681, looked up)
chain: MWQLEAASRAAIENGSEEGLGDSAEVEEAPIEFPRDITMEETEPTRLNPNRRYEDQMVPSITSSLIRPEEDEESSLNLRNSVGDSRAEVPRNMVNTNQAQQRRAEPASNQVTAMIPEFNIRIVAESTEDSTAESSSSGRRERSGGIVPEWSPGYSEQFPSEENGIGGGSTTSSYLQNHHEILNWRRLSQTG
notes: cryptochrome 1 (CRY1), Arabidopsis thaliana, C-terminus, amino acids 491-681; Cloned into pGEX-4T-1; also called C-terminus of cryptochrome 1; source: E. coli BL21 (DE3) pLysS, purified (glutathione resin)
- binding result (SINAT2-His): binds
